Patent US20240011005A1 (HUIDAGENE THERAPEUTICS, published 2024)
Numbering of substitutions follows the chain as printed.

Assays:
Assay in all cases: cell_activity
[1] = target: T1, Un1Cas12f1_ge4.1 (Uncultured bacterium) (UniProt A0A482D308); conditions: PAM TTTG per Table 1; 36.1 in Rh screen
T1 sequence: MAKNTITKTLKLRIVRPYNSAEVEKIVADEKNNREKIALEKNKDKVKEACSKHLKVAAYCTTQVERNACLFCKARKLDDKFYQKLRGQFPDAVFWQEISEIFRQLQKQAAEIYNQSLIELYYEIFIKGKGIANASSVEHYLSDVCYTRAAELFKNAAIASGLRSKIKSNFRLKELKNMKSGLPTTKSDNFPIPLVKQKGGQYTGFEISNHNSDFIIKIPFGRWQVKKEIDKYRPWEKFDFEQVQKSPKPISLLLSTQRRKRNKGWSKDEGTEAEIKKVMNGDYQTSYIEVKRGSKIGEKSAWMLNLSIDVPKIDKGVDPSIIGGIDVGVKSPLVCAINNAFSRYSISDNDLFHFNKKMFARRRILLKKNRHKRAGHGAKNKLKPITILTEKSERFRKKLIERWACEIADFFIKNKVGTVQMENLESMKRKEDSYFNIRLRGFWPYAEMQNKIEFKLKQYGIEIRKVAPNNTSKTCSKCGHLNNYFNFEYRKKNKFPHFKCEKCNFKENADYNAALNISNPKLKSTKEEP

[2] = tested on: T2, OsCas12f1-D52R (Oscillibacter sp.); conditions: PAM TTTC; 1.31-fold in text
T2 sequence: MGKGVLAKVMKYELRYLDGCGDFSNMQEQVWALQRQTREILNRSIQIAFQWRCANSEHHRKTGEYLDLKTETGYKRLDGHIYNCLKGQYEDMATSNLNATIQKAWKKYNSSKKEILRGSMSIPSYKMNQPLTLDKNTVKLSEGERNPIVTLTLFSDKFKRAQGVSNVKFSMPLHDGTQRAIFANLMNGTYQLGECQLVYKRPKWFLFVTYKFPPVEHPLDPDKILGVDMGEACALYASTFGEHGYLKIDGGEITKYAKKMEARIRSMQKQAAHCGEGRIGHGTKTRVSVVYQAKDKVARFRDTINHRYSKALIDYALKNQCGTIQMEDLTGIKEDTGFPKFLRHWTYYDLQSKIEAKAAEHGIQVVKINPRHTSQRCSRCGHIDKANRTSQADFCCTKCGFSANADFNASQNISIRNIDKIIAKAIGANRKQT

[3] = tested on: T3, OsCas12f1-A54R A54R (Oscillibacter sp.); conditions: PAM TTTC
T3 sequence: T2 sequence with R52D, A54R

[4] = tested on: T4, OsCas12f1 (ME-B.3) (Oscillibacter sp.); conditions: PAM TTTC, HEK293T
T4 sequence: T2 sequence with R52D

[5] = tested on: T5, OsCas12f1-S119R S119R (Oscillibacter sp.); conditions: PAM TTTC
T5 sequence: T2 sequence with R52D, S119R

[6] = tested on: T6, OsCas12f1-S141R S141R (Oscillibacter sp.); conditions: PAM TTTC
T6 sequence: T2 sequence with R52D, S141R

[7] = tested on: T7, OsCas12f1-T132R T132R (Oscillibacter sp.); conditions: PAM TTTC
T7 sequence: T2 sequence with R52D, T132R

ACCGCUUCACUUAGAGUGAAGGUGGGCUGCUUGCAUCAGCCUAAUGUCGAGAAGUGCUUUCUUCGGAAAGUAACCCUCGAAACAAAGAAAGGAAUGCAACCCAUUACAGUAGGAGCAUACUUUUAUUUUUUU / TTTGCCATTACAGTAGGAGCATAC / GTATGCTCCTACTGTAATGGCAAA [Un1Cas12f1_ge4.1 sgRNA ; reporter insertion, TTTG PAM]
activity [1]: 36.5 % GFP+

AGGGACGACUUCCCGUCCCAAAAUCGAGACAGUAGCCGUAAAACUUUGAGUUUCAGAGUGGGCGACACACUCGAAAAGGUUAAGAUAUGCACAUAGUAAUCCGUGCAUGAGCCGCGAAAGCGGCUUGAAGGCCAUUACAGUAGGAGCAUACUUUUAUUUUUUU / TTTCCCATTACAGTAGGAGCATACGGG / CCCGTATGCTCCTACTGTAATGGGAAA
activity [2]: 52.8 % GFP+ | activity [3]: 45.5 % GFP+ | activity [4]: 38.7 % GFP+ | activity [5]: 46.3 % GFP+ | activity [6]: 46.6 % GFP+ | activity [7]: 48.4 % GFP+
